Measurements as given in US20260042834A1 (HBM ALPHA THERAPEUTICS, published 2026).
Values joined by “and” are separate entries in the source; they are usually repeats but may differ in a detail not shown here. Identical values can stand only once.

T1: corticotropin-releasing hormone (CRH) peptide (human and mouse (same sequence), not fully specified)
T1 peptide: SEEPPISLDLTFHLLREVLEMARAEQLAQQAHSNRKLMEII

T2: human UCN2 peptide (human, UniProt Q96RP3 72-109, limits assumed, not fully specified; biotin at N- or C-terminus in the ELISA)
T2 construct: also called hUCN2; hUCN2 (NT Biotin)
T2 peptide (looked up): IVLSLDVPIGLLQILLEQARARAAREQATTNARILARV

T3: human UCN3 peptide (human, UniProt Q969E3 120-157, not fully specified; biotin at N- or C-terminus in the ELISA)
T3 construct: also called hUCN3; hUCN3 (NT Biotin)
T3 peptide (looked up): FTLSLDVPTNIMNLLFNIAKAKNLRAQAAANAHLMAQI

T4: corticotropin-releasing hormone (CRH) peptide (human and mouse, not fully specified)
T4 peptide: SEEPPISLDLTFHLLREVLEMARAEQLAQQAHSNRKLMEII

T5: CRH (NT Biotin) (human and mouse, not fully specified; biotin at the N-terminus)
T5 peptide: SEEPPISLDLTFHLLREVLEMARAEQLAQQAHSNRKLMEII

T6: CRH (CT Biotin) (human and mouse, C-terminal K-Biotin)
T6 construct: also called Peptide 4 (CRH-Biotin)
T6 peptide: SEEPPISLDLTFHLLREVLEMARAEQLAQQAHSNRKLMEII

T7: hUCN1 (NT Biotin) (human, UniProt P55089 83-122, biotin at the N-terminus)
T7 construct: also called human UCN1 (NT biotin)
T7 peptide (looked up): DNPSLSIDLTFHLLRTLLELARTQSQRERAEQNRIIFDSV

T8: hUCN1 (CT Biotin) (human, UniProt P55089 83-122, biotin at the C-terminus)
T8 construct: also called human UCN1 (CT biotin)
T8 peptide (looked up): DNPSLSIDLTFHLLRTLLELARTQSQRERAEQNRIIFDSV


Columns and labels:
[1] = biological target: T1, corticotropin-releasing hormone (CRH) …; test: cell-based or functional assay
human UCN2 peptide = biological target: T2, human UCN2 peptide; test: ELISA, biotinylated hUCN2 on streptavidin plates
Experimental: (§1) Streptavidin (Thermo, Cat: 21125) was diluted in PBS with a concentration of 2 μg/mL. 100 μL of diluted streptavidin was added per well to ELISA microplates, and the plates were incubated overnight at 4° C. Plates were blocked with ELISA blocking solution (containing 2% w/v BSA, 0.05% (v/v) Tween-20, pH 7.4 PBS buffer) at 37° C. for 1 hour, and then incubated with either 1 μg/mL hUCN1 (NT Biotin), hUCN1 (CT Biotin), hUCN2 (NT Biotin), hUCN2 (CT Biotin), hUCN3 (NT Biotin), or hUCN3 (CT Biotin) for 1 hour at 37° C. […] 100 μl of TMB Substrate (Biopanda, Cat: TMB-S-003) was added, and the plates were incubated at room temperature for 15 minutes. 100 μL of ELISA stopping solution (Solarbio, Cat #: C1058) was then added to terminate the reaction, and the OD450 nm was determined by an ELISA plate reader (Molecular Devices, Spectra max 384 plus).

human UCN3 peptide = biological target: T3, human UCN3 peptide; test: ELISA, biotinylated hUCN3 on streptavidin plates
Experimental: as §1

[2] = biological target: T4, corticotropin-releasing hormone (CRH) …; test: cell-based or functional assay
CRH (NT Biotin) = biological target: T5, CRH (NT Biotin); test: ELISA, biotin peptide on streptavidin plate
Experimental: (§2) Streptavidin (Thermo, Cat: 21125) was diluted in PBS to a concentration of 2 μg/ml. 100 μl of diluted streptavidin was added per well to ELISA microplates, and the plates were incubated overnight at 4° C. […] 100 μL of 3,3′,5,5′-tetramethylbenzidine (TMB) substrate (Biopanda, Cat: TMB-S-003) was added, and the plates were incubated at room temperature for 15 minutes. 100 μL of ELISA stopping solution (Solarbio, Cat #: C1058) was added to terminate the reaction, and the optical density at 450 nm (OD450 nm) was determined by an ELISA plate reader (Molecular Devices, Spectra max 384 plus).

CRH (CT Biotin) = biological target: T6, CRH (CT Biotin); test: ELISA, biotin peptide on streptavidin plate
Experimental: as §2

hUCN1 (NT Biotin) = biological target: T7, hUCN1 (NT Biotin); test: ELISA, biotin peptide on streptavidin plate
Experimental: as §2

hUCN1 (CT Biotin) = biological target: T8, hUCN1 (CT Biotin); test: ELISA, biotin peptide on streptavidin plate
Experimental: as §2

| Binder | binding result (human UCN2 peptide) | binding result (human UCN3 peptide) | further results |
| --- | --- | --- | --- |
| PR006669 (antibody, human IgG1, kappa, V domains shown) VH: EVQLVESGGGLVQPGGSLRLSCAASGFTFSDNWMSWVRQAPGKGLEWVANIKQDGSENYYVDSVKGRFTISRDNAKNSLYLQMNSLRAEDTAVYYCSRGLALWGWGQGTLVTVSS VL: DIVMTHSPLSLPVTPGDPASISCRSSQSLLHSTGYNYLDWYLQKPGQSPQLLIYLGSNRASGVPDRFSGSGSGTDFTLKFIRVEAEDVGVYYCMQALQTPYTFGQGTKLEIKR |  |  | hCRHR1 Luciferase Reporter Assay IC50 [1]: 7.38 nM; mCrhr1 Luciferase Reporter Assay IC50 [1]: 28.9 nM |
| PR006745 (antibody, human IgG1, kappa, V domains shown) VH: EVQLVESGGGLVQPGGSLRLSCAASGFTFSDNWMSWVRQAPGKGLEWVANIKQDASENYYVDSVKGRFTISRDNAKNSLYLQMNSLRAEDTAVYYCSRGLALWGWGQGTLVTVSS VL: DIVMTHSPLSLPVTPGDPASISCRSSQSLLHSTGYNYLDWYLQKPGQSPQLLIYLGSNRASGVPDRFSGSGSGTDFTLKFIRVEAEDVGVYYCMQALQTPYTFGQGTKLEIKR |  |  | hCRHR1 Luciferase Reporter Assay IC50 [1]: 13.2 nM; mCrhr1 Luciferase Reporter Assay IC50 [1]: 76.2 nM |
| PR006746 (antibody, human IgG1, kappa, V domains shown) VH: EVQLVESGGGLVQPGGSLRLSCAASGFTFSDNWMSWVRQAPGKGLEWVANIKQDSSENYYVDSVKGRFTISRDNAKNSLYLQMNSLRAEDTAVYYCSRGLALWGWGQGTLVTVSS VL: DIVMTHSPLSLPVTPGDPASISCRSSQSLLHSTGYNYLDWYLQKPGQSPQLLIYLGSNRASGVPDRFSGSGSGTDFTLKFIRVEAEDVGVYYCMQALQTPYTFGQGTKLEIKR |  |  | hCRHR1 Luciferase Reporter Assay IC50 [1]: 10 nM; mCrhr1 Luciferase Reporter Assay IC50 [1]: 46.4 nM |
| PR302341-28 (antibody, human IgG1, kappa, V domains shown, Humanized, PTM-removed variant of PR302341) VH: QVQLVQSGAEVKKPGASVKVSCKASGYTFTDYFMKWVRQAPGQGLEWMGVINPNQGDIFYNQKFKGRVTMTVDKSISTAYMELSRLRSDDTAVYYCARGTDRALFAYWGQGTLVTVSS VL: DVVMTQSPLSLPVTLGQPASISCRSGQSIVHSDGNTYLEWYQQRPGQSPRLLIYKVSNRFSGVPDRFSGSGSGTDFTLKISRVEAEDLGVYYCFQGSHIPWTFGGGTKVEIKR | no binding (tested: 100 nM) | no binding (tested: 100 nM) |  |
| PR302341-48 (antibody, human IgG1, kappa, V domains shown, Humanized, PTM-removed variant of PR302341) VH: QVQLVQSGAEVKKPGASVKVSCKASGYTFTDYFMKWVRQAPGQGLEWMGVINPNQGDIFYNQKFKGRVTMTVDKSTSTAYMELSSLRSEDTAVYYCARGTDRALFAYWGQGTLVTVSS VL: DVVMTQTPLSSPVTLGQPASISCRSGQSIVHSDANTYLEWYQQRPGQPPRLLIYKVSNRFSGVPDRFSGSGAGTDFTLKISRVEAEDLGVYYCFQGSHIPWTFGGGTKVEIKR | no binding (tested: 100 nM) | no binding (tested: 100 nM) |  |
| PR302341-60 (antibody, human IgG1, kappa, V domains shown, Humanized, PTM-removed variant of PR302341) VH: QVQLVQSGAEVKKPGASVKVSCKASGYTFTDYFMKWVRQAPGQRLEWMGVINPNQGDIFYNQKFKGRVTITRDTSASTAYMELSSLRSEDTAVYYCARGTDRALFAYWGQGTLVTVSS VL: DVVMTQSPLSLPVTLGQPASISCRSGQSIVHSDANTYLEWYQQRPGQSPRLLIYKVSNRFSGVPDRFSGSGSGTDFTLKISRVEAEDLGVYYCFQGSHIPWTFGGGTKVEIKR | no binding (tested: 100 nM) | no binding (tested: 100 nM) |  |
| PR004290 (antibody, human IgG1, kappa, V domains shown, Series 1; human IgG1 wildtype Fc; also called Hybridoma Clone 28b3) VH: EVQLVESGGVLVQPGGSLRLSCAASGFTFSSYWMTWVRQAPGKGLEWVANIKQDGSEKYYVDSVKGRFTISRDNAKNSLFLQMNSLRAEDTAVYYCARTLIFDYWGQGTLVTVSS VL: DIVMTQSPLSLPVTPGEPASISCRSSQSLLHSTGYNSLEWYLQKPGQSPQLLIYLGSNRASGVPDRFSGSGSGTDFTLKISRVEAEDVGIYYCMQTLQTPITFGQGTRLEIKR |  |  | CHO-CRE-hCRHR1 0.5 nM CRH IC50 [2]: 5.41 nM and 3.49 nM; EC50 (CRH (NT Biotin)): 0.05 nM; EC50 (CRH (CT Biotin)): 0.065 nM; EC50 (hUCN1 (NT Biotin)): 1.59 nM; EC50 (hUCN1 (CT Biotin)): > 1 nM |
| PR004290 (antibody, human IgG1, kappa, V domains shown, Series 1; human IgG1 wildtype Fc; also called hybridoma clone 28b3) VH: EVQLVESGGVLVQPGGSLRLSCAASGFTFSSYWMTWVRQAPGKGLEWVANIKQDGSEKYYVDSVKGRFTISRDNAKNSLFLQMNSLRAEDTAVYYCARTLIFDYWGQGTLVTVSS VL: DIVMTQSPLSLPVTPGEPASISCRSSQSLLHSTGYNSLEWYLQKPGQSPQLLIYLGSNRASGVPDRFSGSGSGTDFTLKISRVEAEDVGIYYCMQTLQTPITFGQGTRLEIKR | no binding (tested: 100 nM) | no binding (tested: 100 nM) |  |
| PR005660 (antibody, human IgG1, kappa, V domains shown, ΔPTM variant of PR004290) VH: EVQLVESGGVLVQPGGSLRLSCAASGFTFSSYWMTWVRQAPGKGLEWVANIKQEGSEKYYVDSVKGRFTISRDNAKNSLFLQMNSLRAEDTAVYYCARTLIFDYWGQGTLVTVSS VL: DIVMTQSPLSLPVTPGEPASISCRSSQSLLHSTGYQSLEWYLQKPGQSPQLLIYLGSNRASGVPDRFSGSGSGTDFTLKISRVEAEDVGIYYCMQTLQTPITFGQGTRLEIKR | no binding (tested: 100 nM) | no binding (tested: 100 nM) |  |
| PR302064 (antibody, human IgG1, kappa, V domains shown, Humanized variant of PR301777; human IgG1-WT-Fc) VH: EMQLVESGGGLVKPGGSLRLSCAASGFTFSNYWMNWVRQAPGKGLEWVAEIRLKSNNYATHYAESVKGRFTISRDDSKSTVYLQMNSLKTEDTAVYYCTVGTLVYWGQGTLVTVSS VL: DIVLTQSPDSLAVSLGERATINCRASQSVSTSTYNYMHWFQQKPGQPPKLLIKFASNLESGVPDRFSGSGSGTDFTLTISSLQAEDTAVYYCQHSWEIPYTFGQGTKLEIKR | no binding (tested: 100 nM) | no binding (tested: 100 nM) |  |
| PR303394 (antibody, human IgG1, kappa, V domains shown, also called analog of CTRND05) VH: EVQLQQSGPELVKPGVSMKISCKASGYSFTDSTMNWVKQSHGKNLEWIGLIHPDNGGTIYNQKFKGKATLTVHKSSSTAYMELLSLTSEDSAVYYCANGFAYWGQGTLVTVSA VL: DVVMTQTPLSLPVSLGDQASISCRSSQSLLHSNGNTYLHWYLQKPGQSPELLIYKVSNRFSGVPDRFSGSGSGTDFTLKISRVEAEDLGVYFCSQSTHVPLTFGAGTKLELKR | no binding (tested: 100 nM) | no binding (tested: 100 nM) |  |
| PR302309-8 (antibody, human IgG1, kappa, V domains shown, Humanized variant of PR302309) VH: QIQLVQSGSELKKPGASVKVSCKASGYTFTNYGMNWVRQAPGQGLEWMGWINTYTGEPIYTDDFKGRFVFSLDTSVSTAYLQISSLKAEDTAVYYCSRSTMITTGGVFAYWGQGTLVTVSS VL: DVVMTQSPLSLPVTLGQPASISCRSSQTIVHSDGNTYLEWYQQRPGQSPRLLIYKVSNRFSGVPDRFSGSGSGTDFTLKISRVEAEDLGVYYCFQGSHVPWTFGGGTKVEIKR | no binding (tested: 100 nM) | no binding (tested: 100 nM) |  |
| PR302309-11 (antibody, human IgG1, kappa, V domains shown, Humanized variant of PR302309) VH: QIQLVQSGSELKKPGASVKVSCKASGYTFTNYGMNWVRQAPGQGLEWMGWINTYTGEPIYTDDFKGRFVFSLDTSVSTAYLQISSLKAEDTAVYYCSRSTMITTGGVFAYWGQGTLVTVSS VL: DIVMTQTPLSSPVTLGQPASISCRSSQTIVHSDGNTYLEWLQQRPGQPPRLLIYKVSNRFSGVPDRFSGSGAGTDFTLKISRVEAEDVGVYYCFQGSHVPWTFGGGTKVEIKR | no binding (tested: 100 nM) | no binding (tested: 100 nM) |  |
